{"source": "paper PMC8786865", "about": "(Nature Communications, 2022)"}
{"target": "T1, SARS-CoV-2 spike receptor-binding domain (RBD) (SARS-CoV-2, Wuhan-Hu-1, UniProt P0DTC2)", "T1 construct": "also called SARS-CoV-2 RBD", "experiment": "SPR; array SPR (Carterra LSA), HC200M chip; IgG captured on immobilised anti-human Fc; antigen as analyte in a 7-point series, RBD 300 nM to 411 pM or trimer 100 nM to 137 pM, in 1x HBSTE with 0.5 mg/mL BSA; association 5 min, dissociation 11 min; one-site model; constants for the trimer are called avidities", "conditions": "both partners purified"}
{"binder": "selected anti-SARS-CoV-2 spike antibody B3 (antibody, V domains shown) VH: EVQLVQSGAEVKKPGASVKVSCKVSGYTSPATIHWVRQAPGKGLEWMGGISPYKGDTIYAQKFQGRVTMTEDTSTDTAYMELSSLKSEDTAVYYCAKDSYYYDSSGSGLGGGFDYWGQGTLVTVSS VL: DIQMTQSPSSVSASVGDRVTITCRASQDIGNHLAWYQQKPGKAPKLLIYASSNLASGVPSRFSGSGSGTDFTLTISSLQPEDFANYYCHQYATYPWTFGGGTKVEIK", "binding result": "binds"}
{"binder": "selected anti-SARS-CoV-2 spike antibody B7 (antibody, V domains shown) VH: QVQLVQSGAEVKKPGASVKVSCKVSGYSFTDHSIHWVRQAPGKGLEWMGGINPNIGDTIYAQKFQGRVTMTEDTSTDTAYMELSSLKSEDTAVYYCAKDGWGSLLNGIAVAGLDYWGQGTLVTVSS VL: DIQMTQSPSSVSASVGDRVTITCRASQDIGNHLAWYQQKPGKAPKLLIYASSNLASGVPSRFSGSGSGTDFTLTISSLQPEDFANYYCHQYATYPWTFGGGTKVEIK", "binding result": "binds"}
{"binder": "selected anti-SARS-CoV-2 spike antibody B11 (antibody, V domains shown) VH: EVQLVQSGAEVKKPGASVKVSCKVSGYSFTDHSIHWVRQAPGKGLEWMGGINPYTGDTIYAQKFQGRVTMTEDTSTDTAYMELSSLKSEDTAVYYCARDAYPYYYGMDVWGQGTTVTVSS VL: DIQMTQSPSSVSASVGDRVTITCRASQDIGNHLAWYQQKPGKAPKLLIYASSNLASGVPSRFSGSGSGTDFTLTISSLQPEDFANYYCHQYATYPWTFGGGTKVEIK", "binding result": "binds"}
{"binder": "selected anti-SARS-CoV-2 spike antibody C1 (antibody, V domains shown) VH: EVQLVQSGAEVKKPGASVKVSCKVSGYSFTDHSIHWVRQAPGKGLEWMGGISTQRGDTIYAQKFQGRVTMTEDTSTDTAYMELSSLKSEDTAVYYCARDGYYGSGTYYYYGMDVWGQGTTVTVSS VL: DIQMTQSPSSVSASVGDRVTITCRASQSIGSFLAWYQQKPGKAPKLLIYGESNRATGVPSRFSGSGSGTDFTLTISSLQPEDFANYYCQQYNRYPWAFGGGTKVEIK", "binding result": "binds"}
{"binder": "selected anti-SARS-CoV-2 spike antibody C2 (antibody, V domains shown) VH: QVQLVQSGAEVKKPGASVKVSCKASGYTSPATIHWVRQAPGKGLEWMGGISPYKGDTIYAQKFQGRVTMTEDTSTDTAYMELSSLKSEDTAVYYCARDAYSSSYYYGMDVWGQGTTVTVSS VL: DIQMTQSPSSVSASVGDRVTITCRASEDISKYLAWYQQKPGKAPKLLIYGASNLHTGVPSRFSGSGSGTDFTLTISSLQPEDFANYYCHQYATYPWTFGGGTKVEIK", "binding result": "binds"}
{"binder": "selected anti-SARS-CoV-2 spike antibody C4 (antibody, V domains shown) VH: EVQLVQSGAEVKKPGASVKVSCKVSGYSFTDHSIHWVRQAPGKGLEWMGGINPYTGDTIYAQKFQGRVTMTEDTSTDTAYMELSSLKSEDTAVYYCARDGYSGYDYGSVGRDYYYYGMDVWGQGTTVTVSS VL: DIQMTQSPSSVSASVGDRVTITCRASQDIGNHLAWYQQKPGKAPKLLIYASSNLASGVPSRFSGSGSGTDFTLTISSLQPEDFANYYCHQYATYPWTFGGGTKVEIK", "binding result": "binds"}
{"binder": "selected anti-SARS-CoV-2 spike antibody C7 (antibody, V domains shown) VH: QVQLVQSGAEVKKPGASVKVSCKVSGYSFTNYAIHWVRQAPGKGLEWMGGITPYNADTIYAQKFQGRVTMTEDTSTDTAYMELSSLKSEDTAVYYCARDGGNWAAPYSMDVWGNGTLVTVSS VL: DIQMTQSPSSVSASVGDRVTITCRASHGISSYLAWYQQKPGKAPKLLIYDATIRATGVPSRFSGSGSGTDFTLTISSLQPEDFANYYCHQYATYPWTFGGGTKVEIK", "binding result": "binds"}
{"binder": "selected anti-SARS-CoV-2 spike antibody D2 (antibody, V domains shown) VH: QVQLVQSGAEVKKPGASVKVSCKVSGYSFTDHSIHWVRQAPGKGLEWMGGINPYTGDTIYAQKFQGRVTMTEDTSTDTAYMELSSLKSEDTAVYYCARDARLLDYWGQGAQVTVSS VL: DIQMTQSPSSVSASVGDRVTITCRASRSIGNHLAWYQQKPGKAPKLLIYASSNLASGVPSRFSGSGSGTDFTLTISSLQPEDFANYYCHQYATYPWTFGGGTKVEIK", "binding result": "binds"}
{"binder": "selected anti-SARS-CoV-2 spike antibody D3 (antibody, V domains shown) VH: EVQLVQSGAEVKKPGASVKVSCKVSGYSFADYAIHWVRQAPGKGLEWMGGINPNIGDTIYAQKFQGRVTMTEDTSTDTAYMELSSLKSEDTAVYYCARDGYDFWSGSYGMDVWGQGTTVTVSS VL: DIQMTQSPSSVSASVGDRVTITCRASQDIGNHLAWYQQKPGKAPKLLIYASSNLASGVPSRFSGSGSGTDFTLTISSLQPEDFANYYCQQYSEYPWTFGGGTKVEIK", "binding result": "binds"}
{"binder": "selected anti-SARS-CoV-2 spike antibody F1 (antibody, V domains shown) VH: EVQLVQSGAEVKKPGASVKVSCKVSGYPFTSYAIHWVRQAPGKGLEWMGGITPYNADTIYAQKFQGRVTMTEDTSTDTAYMELSSLKSEDTAVYYCARDGYSSGYYGMDVWGQGTTVTVSS VL: DIQMTQSPSSVSASVGDRVTITCRASQDIGNHLAWYQQKPGKAPKLLIYASSNLASGVPSRFSGSGSGTDFTLTISSLQPEDFANYYCHQYATYPWTFGGGTKVEIK", "binding result": "binds"}
{"binder": "selected anti-SARS-CoV-2 spike antibody A10 (antibody, V domains shown) VH: QVQLVQSGAEVKKPGASVKVSCKVSGYSFTDHSIHWVRQAPGKGLEWMGGINPNIGDTIYAQKFQGRVTMTEDTSTDTAYMELSSLKSEDTAVYYCARDGYGDYRGLYGMDVWGQGTTVTVSS VL: DIQMTQSPSSVSASVGDRVTITCRASRDINKYLAWYQQKPGKAPKLLIYGESSRAAGVPSRFSGSGSGTDFTLTISSLQPEDFANYYCHQYATYPWTFGGGTKVEIK", "binding result": "binds"}
{"binder": "selected anti-SARS-CoV-2 spike antibody F5 (antibody, V domains shown) VH: EVQLVQSGAEVKKPGASVKVSCKVSGYTFSNHAIHWVRQAPGKGLEWMGGINPNIGDTIYAQKFQGRVTMTEDTSTDTAYMELSSLKSEDTAVYYCARDGYSGYVEGMDVWGQGTTVTVSS VL: DIQMTQSPSSVSASVGDRVTITCRASQNIHSYLAWYQQKPGKAPKLLIYDTSKLQSGVPSRFSGSGSGTDFTLTISSLQPEDFANYYCHQYAAYPWTFGGGTKVEIK", "binding result": "binds"}
{"binder": "selected anti-SARS-CoV-2 spike antibody F7 (antibody, V domains shown) VH: QVQLVQSGAEVKKPGASVKVSCKVSGYSFSTYTIHWVRQAPGKGLEWMGGINPYTGDTIYAQKFQGRVTMTEDTSTDTAYMELSSLKSEDTAVYYCARDGYSGYESSYYYYGMDVWGQGTTVTVSS VL: DIQMTQSPSSVSASVGDRVTITCRASQDIGNHLAWYQQKPGKAPKLLIYASSNLASGVPSRFSGSGSGTDFTLTISSLQPEDFANYYCHQYATYPWTFGGGTKVEIK", "binding result": "binds"}
{"binder": "selected anti-SARS-CoV-2 spike antibody G2 (antibody, V domains shown) VH: QVQLVQSGAEVKKPGASVKVSCKVSGYTFTANAIHWVRQAPGKGLEWMGGIGPGQGDTIYAQKFQGRVTMTEDTSTDTAYMELSSLKSEDTAVYYCARDGHCSGGSCPSGMDVWGQGTTVTVSS VL: DIQMTQSPSSVSASVGDRVTITCRASQDIGNHLAWYQQKPGKAPKLLIYGASIRESGVPSRFSGSGSGTDFTLTISSLQPEDFANYYCQQYSAFPWTFGGGTKVEIK", "binding result": "binds"}
{"binder": "selected anti-SARS-CoV-2 spike antibody G4 (antibody, V domains shown) VH: QVQLVQSGAEVKKPGASVKVSCKVSGYTLSDHAIHWVRQAPGKGLEWMGGINPYTGDTIYAQKFQGRVTMTEDTSTDTAYMELSSLKSEDTAVYYCARDGYDFWSGSYGMDVWGQGTTVTVSS VL: DIQMTQSPSSVSASVGDRVTITCRASQDIGNHLAWYQQKPGKAPKLLIYASSNLASGVPSRFSGSGSGTDFTLTISSLQPEDFANYYCHQYATYPWTFGGGTKVEIK", "binding result": "binds"}
{"binder": "selected anti-SARS-CoV-2 spike antibody G5 (antibody, V domains shown) VH: QVQLVQSGAEVKKPGASVKVSCKVSGYSFTDHSIHWVRQAPGKGLEWMGGINPYTGDTIYAQKFQGRVTMTEDTSTDTAYMELSSLKSEDTAVYYCARDGYSYGYLSGMDVWGQGTTVTVSS VL: DIQMTQSPSSVSASVGDRVTITCRASQDISHHLAWYQQKPGKAPKLLIYDASLRATGIPSRFSGSGSGTDFTLTISSLQPEDFANYYCHQYAAYPWTFGGGTKVEIK", "binding result": "binds"}
{"binder": "selected anti-SARS-CoV-2 spike antibody G6 (antibody, V domains shown) VH: EVQLVESGAEVKKPGASVKVSCKVSGYTFSNHAIHWVRQAPGKGLEWMGGINPNIGDTIYAQKFQGRVTMTEDTSTDTAYMELSSLKSEDTAVYYCARDGYPGDYSGLDVWGQGTLVTVSS VL: DIQMTQSPSSVSASVGDRVTITCRASQPISSYLAWYQQKPGKAPKLLIYEASKLQSGVPSRFSGSGSGTDFTLTISSLQPEDFANYYCHQYATYPWTFGGGTKVEIK", "binding result": "binds"}
{"binder": "selected anti-SARS-CoV-2 spike antibody G12 (antibody, V domains shown) VH: EVQLVQSGAEVKKPGASVKVSCKVSGYTFSNHAIHWVRQAPGKGLEWMGGINPNIGDTIYAQKFQGRVTMTEDTSTDTAYMELSSLKSEDTAVYYCARDGYGDYRGLYGMDVWGQGTTVTVSS VL: DIQMTQSPSSVSASVGDRVTITCRASQDIGNHLAWYQQKPGKAPKLLIYASSNLASGVPSRFSGSGSGTDFTLTISSLQPEDFANYYCHQYATYPWTFGGGTKVEIK", "binding result": "binds"}
{"binder": "selected anti-SARS-CoV-2 spike antibody H2 (antibody, V domains shown) VH: EVQLVQSGAEVKKPGASVKVSCKVSGYPFTRSTIHWVRQAPGKGLEWMGGINAGTGDTIYAQKFQGRVTMTEDTSTDTAYMELSSLKSEDTAVYYCARDGYSSGYYGMDVWGQGTLVTVSS VL: DIQMTQSPSSVSASVGDRVTITCRASQGISDFLAWYQQKPGKAPKLLIYGASNRATGVPSRFSGSGSGTDFTLTISSLQPEDFANYYCHQYATYPWTFGGGTKVEIK", "binding result": "binds"}
{"binder": "selected anti-SARS-CoV-2 spike antibody A11 (antibody, V domains shown) VH: QVQLVQSGAEVKKPGASVKVSCKVSGYSFTDHSIHWVRQAPGKGLEWMGGINPYTGDTIYAQKFQGRVTMTEDTSTDTAYMELSSLKSEDTAVYYCARDGYSYGYLSGMDVWGQGTTVTVSS VL: DIQMTQSPSSVSASVGDRVTITCRASQDIGNHLAWYQQKPGKAPKLLIYASSNLASGVPSRFSGSGSGTDFTLTISSLQPEDFANYYCHQYATYPWTFGGGTKVEIK", "binding result": "binds"}
{"binder": "selected anti-SARS-CoV-2 spike antibody A12 (antibody, V domains shown) VH: EVQLVQSGAEVKKPGASVKVSCKVSGYSFTDHSIHWVRQAPGKGLEWMGGINPYTGDTIYAQKFQGRVTMTEDTSTDTAYMELSSLKSEDTAVYYCARDGWGSLLNGIAVAGLDYWGQGTLVTVSS VL: DIQMTQSPSSVSASVGDRVTITCRASQDIGNHLAWYQQKPGKAPKLLIYASSNLASGVPSRFSGSGSGTDFTLTISSLQPEDFANYYCHQYATYPWTFGGGTKVEIK", "binding result": "binds"}
